Read-outs that look alike come from different tables or passages of the source.
Tests used:
[1] = target: D3H44 Fab heavy chain L124A; test: LCCA, L1:L2 DNA 1:3 normalised to 1:1, SPR of light chain tags; competitor m51
[2] = target: D3H44 Fab heavy chain L124W_L143F; test: as above
[3] = target: D3H44 Fab heavy chain of LCCA set 6036; test: as above
[4] = target: D3H44 Fab heavy chain L124A; test: LCCA, L1:L2 DNA 1:3 normalised to 1:1, SPR of light chain tags; competitor m50
[5] = target: D3H44 Fab heavy chain L124W_L143F; test: as above
[6] = target: D3H44 Fab heavy chain of LCCA set 6036; test: as above
[7] = target: D3H44 Fab heavy chain S188G; test: LCCA, L1:L2 DNA 1:3 normalised to 1:1, SPR of light chain tags; competitor m42
[8] = target: D3H44 Fab heavy chain S188L; test: as above
[9] = target: D3H44 Fab heavy chain A139G_F174V_V190A; test: LCCA, L1:L2 DNA 1:3 normalised to 1:1, SPR of light chain tags; competitor m45
[10] = target: D3H44 Fab heavy chain S188L_V190Y; test: as above
[11] = target: D3H44 Fab heavy chain A139G_F174V_V190A; test: LCCA, L1:L2 DNA 1:9 normalised to 1:1, SPR of light chain tags; competitor m45
[12] = target: D3H44 Fab heavy chain S188L_V190Y; test: as above
[13] = target: D3H44 Fab heavy chain F122C_C233S; test: LCCA, L1:L2 DNA 1:3 normalised to 1:1, SPR of light chain tags; competitor m42
[14] = target: D3H44 Fab heavy chain L124E_K145M_Q179E; test: LCCA, SPR of light chain tags; L1:L2 DNA 1:3 normalized to 1:1; competitor m8
[15] = target: D3H44 Fab heavy chain L124R_D146N_Q179K; test: as above
[16] = target: D3H44 Fab heavy chain L124E_L143E_K145T; test: LCCA, SPR of light chain tags; L1:L2 DNA 1:3 normalized to 1:1; competitor m10
[17] = target: D3H44 Fab heavy chain L124R_Q179K; test: as above
[18] = target: D3H44 Fab heavy chain L124E_L143E_K145T; test: LCCA, SPR of light chain tags; L1:L2 DNA 1:9 normalized to 1:1; competitor m10
[19] = target: D3H44 Fab heavy chain L124R_Q179K; test: as above
[20] = target: D3H44 Fab heavy chain L124E_L143E_K145M; test: LCCA, L1:L2 DNA 1:3 normalised to 1:1, SPR of light chain tags; competitor m55
[21] = target: D3H44 Fab heavy chain L124R_D146N_Q179K; test: as above
[22] = target: D3H44 Fab heavy chain L124R_D146N_Q179K (H1 of LCCA sets 9358, 9359, 9357, 9351, 9352, 9353, 9354, 9350)
[23] = target: D3H44 Fab heavy chain L124R_D146N_Q179K (H1 of LCCA sets 9358, 9359, 9357, 9351, 9352, 9353, 9354, 9350); remark: listed apart in the source
[24] = target: D3H44 Fab heavy chain L124E_L143D_K145T (H1 of LCCA sets 9214, 9217, 9216, 9219, 9220, 9225, 9228, 9229); test: LCCA: H1 co-expressed with L1 and L2 (DNA 333:250:749 ng), His-tag capture on SPR chip, light chain tags detected with anti-HA/anti-FLAG; competitor L1 Q124K_V133G_S176R_T178K
[25] = target: D3H44 Fab heavy chain L124E_L143D_K145T (H1 of LCCA sets 9214, 9217, 9216, 9219, 9220, 9225, 9228, 9229); test: LCCA: H1 co-expressed with L1 and L2 (DNA 333:250:749 ng), His-tag capture on SPR chip, light chain tags detected with anti-HA/anti-FLAG; competitor L1 Q124K_V133G_S176R_T178R
[26] = target: D3H44 Fab heavy chain L124E_L143E_K145M (H1 of LCCA sets 9269, 9266, 9267, 9260, 9262, 9263); test: as above
[27] = target: D3H44 Fab heavy chain L124R_D146N_Q179K (H1 of LCCA sets 9358, 9359, 9357, 9351, 9352, 9353, 9354, 9350); test: LCCA: H1 co-expressed with L1 and L2 (DNA 333:250:749 ng), His-tag capture on SPR chip, light chain tags detected with anti-HA/anti-FLAG; competitor L2 Q124K_V133G_Q160K_S176R
[28] = target: D3H44 Fab heavy chain L124R_D146N_Q179K (H1 of LCCA sets 9358, 9359, 9357, 9351, 9352, 9353, 9354, 9350); test: LCCA: H1 co-expressed with L1 and L2 (DNA 333:250:749 ng), His-tag capture on SPR chip, light chain tags detected with anti-HA/anti-FLAG; competitor L2 Q124K_V133G_S176R_T178K
[29] = target: D3H44 Fab heavy chain A139C_C233S; test: LCCA, L1:L2 DNA 1:3 normalised to 1:1, SPR of light chain tags; competitor m42
[30] = target: D3H44 Fab heavy chain A139C_C233S; test: LCCA, L1:L2 DNA 1:9 normalised to 1:1, SPR of light chain tags; competitor m42
[31] = target: D3H44 Fab heavy chain S188L; test: LCCA, L1:L2 DNA 1:3 normalised to 1:1, SPR of light chain tags; competitor m47
[32] = target: D3H44 Fab heavy chain S188L; test: LCCA, L1:L2 DNA 1:3 normalised to 1:1, SPR of light chain tags; competitor m48
[33] = target: D3H44 Fab heavy chain S188L_V190F; test: LCCA, L1:L2 DNA 1:3 normalised to 1:1, SPR of light chain tags; competitor m49
[34] = target: D3H44 Fab heavy chain S188L_V190F; test: LCCA, L1:L2 DNA 1:9 normalised to 1:1, SPR of light chain tags; competitor m49
[35] = target: D3H44 Fab heavy chain P175C_C233S; test: LCCA, L1:L2 DNA 1:3 normalised to 1:1, SPR of light chain tags; competitor m42
[36] = target: D3H44 Fab heavy chain P175C_C233S; test: LCCA, L1:L2 DNA 1:9 normalised to 1:1, SPR of light chain tags; competitor m42

Work on D3H44 light chain V133W yielded an H1L1:H1L2 normalized median ratio [1] of 41%, an H1L1:H1L2 normalized median scalar value ln(r1/f1) [1] of -0.38 and an H2L2:H2L1 normalized median ratio [2] of 44%. For the same substance, the H2L2:H2L1 normalized median ratio [3] was 41%.

Work on D3H44 light chain V133A yielded an H1L1:H1L2 normalized median ratio [4] of 59%, an H2L2:H2L1 normalized median ratio [5] of 56% and an H2L2:H2L1 normalized median ratio [6] of 59%.

D3H44 light chain S176L was tested, and the H1L1:H1L2 normalized median ratio [7] was 22%, the H1L1:H1L2 normalized median scalar value ln(r1/f1) [7] was -1.25 and the H2L2:H2L1 normalized median ratio [8] was 7%.

D3H44 light chain V133S was tested, and the H1L1:H1L2 normalized median ratio [9] was 26%, the H2L2:H2L1 normalized median ratio [10] was 58% and the H1L1:H1L2 normalized median ratio [11] was 11%. For the same substance, the H2L2:H2L1 normalized median ratio [12] was 62%.

Work on D3H44 light chain S121C_C214S yielded an H1L1:H1L2 normalized median scalar value ln(r1/f1) [13] of 3.12.

“D3H44 light chain Q124E_V133G_S176D_T178E_T180E” was tested, and the H1L1:H1L2 normalized median ratio (% of heavy chain paired) [14] was 6, the H2L2:H2L1 normalized median ratio (% of heavy chain paired) [15] was 90 and the H1L1:H1L2 normalized median ratio (% of heavy chain paired) [16] was 5. The H2L2:H2L1 normalized median ratio (% of heavy chain paired) [17] was 92, the H1L1:H1L2 normalized median ratio (% of heavy chain paired) [18] was 2 and the H2L2:H2L1 normalized median ratio (% of heavy chain paired) [19] was 84. The H1L1:H1L2 normalized median ratio [20] was 16%, the H2L2:H2L1 normalized median ratio [21] was 84% and the median LCCA performance normalized to a L1:L2 DNA ratio of 1:1 (ratio H1-L1:H1-L2), H1-L1 share (ratio part of 100) [22] was 90. For the same substance, the median LCCA performance normalized to a L1:L2 DNA ratio of 1:1 (ratio H1-L1:H1-L2), H1-L1 share (ratio part of 100) [23] was 89, the median LCCA performance normalized to a L1:L2 DNA ratio of 1:1 (ratio H1-L1:H1-L2), H1-L2 share (ratio part of 100) [24] was 21 and the median LCCA performance normalized to a L1:L2 DNA ratio of 1:1 (ratio H1-L1:H1-L2), H1-L2 share (ratio part of 100) [25] was 17. It also gave a median LCCA performance normalized to a L1:L2 DNA ratio of 1:1 (ratio H1-L1:H1-L2), H1-L2 share (ratio part of 100) [26] of 16, a median LCCA performance normalized to a L1:L2 DNA ratio of 1:1 (ratio H1-L1:H1-L2), H1-L1 share (ratio part of 100) [27] of 82 and a median LCCA performance normalized to a L1:L2 DNA ratio of 1:1 (ratio H1-L1:H1-L2), H1-L1 share (ratio part of 100) [28] of 84.

D3H44 light chain F116C_C214S gave an H1L1:H1L2 normalized median scalar value ln(r1/f1) [29] of 1.37 and an H1L1:H1L2 normalized median scalar value ln(r1/f1) [30] of 1.39.

D3H44 light chain, wild type gave an H2L2:H2L1 normalized median ratio [31] of 93%, an H2L2:H2L1 normalized median ratio [32] of 61% and an H2L2:H2L1 normalized median ratio [33] of 61%. The H2L2:H2L1 normalized median ratio [34] was 72%.

D3H44 light chain S162C_C214S was tested, and the H1L1:H1L2 normalized median scalar value ln(r1/f1) [35] was 1.84 and the H1L1:H1L2 normalized median scalar value ln(r1/f1) [36] was 1.24.

Source: patent US11306156
